Assay results published in paper PMC9482650, “Quantitative fragmentomics allow affinity mapping of interactomes” (Nature Communications, 2022).

B1: VAC14, Q08AM6 (peptide)
chain: GDHLDRRVVL
B2: TUBB4B, P68371 (peptide)
chain: FEEEAEEEVA
B3: ADAM17, P78536 (peptide)
chain: NRVDSKETEC
B4: XKR7, Q5GH72 (peptide)
chain: QELLEYETTV
B5: EFNB3, Q15768 (peptide)
chain: QSPPNIYYKV
B6: FZD8, Q9H461 (peptide)
chain: YPKQMPLSQV
B7: MARCHF4, Q9P2E8 (peptide)
chain: RELVMRVTTV
B8: IGF1R, P08069 (peptide)
chain: ALPLPQSSTC
B9: AKAP10, O43572 (peptide)
chain: DQPLEKSTKL
B10: PKN2, Q16513 (peptide)
chain: RDFDYIADWC
B11: MCM7, P33993 (peptide)
chain: NASRTRITFV
B12: STK16, O75716 (peptide)
chain: PAPGQHTTQI
B13: GOLT1A, Q6ZVE7 (peptide)
chain: RRLQGTSSMV
B14: ADRB1, P08588 (peptide)
chain: RPGFASESKV
B15: RAMP3, O60896 (peptide)
chain: WRSKRTDTLL
B16: SH2D3C, Q8N5H7 (peptide)
chain: LEPAVRSSEL
B17: YAP1, P46937 (peptide)
chain: LDKESFLTWL
B18: PTH2R, P49190 (peptide)
chain: GCQGETEDVL
B19: AKIP1, Q9NQ31 (peptide)
chain: GQSVDLVFPV
B20: SMCHD1, A6NHR9 (peptide)
chain: QNRIITKTDV
B21: FAT1, Q14517 (peptide)
chain: PLDSQQHTEV
B22: CTNNA2, P26232 (peptide)
chain: LSEFKAMDSF
B23: COMMD3, Q9UBI1 (peptide)
chain: SKSLERATQL
B24: NOS1AP, O75052 (peptide)
chain: GDGLDDEIAV
B25: RPS6KA1_-2P, Q15418 (peptide)
chain: RRVRKLPSTTL
B26: UNC93A, Q86WB7 (peptide)
chain: AEDEEIQTKM
B27: PKP4, Q99569 (peptide)
chain: QYPGSPDSWV
B28: GRIA3, P42263 (peptide)
chain: NVYGTESVKI
B29: BCR, P11274 (peptide)
chain: RQSILFSTEV
B30: RPS6KA1_-1P, Q15418 (peptide)
chain: RRVRKLPSTTL
B31: HSPA5, P11021 (peptide)
chain: EEDTAEKDEL
B32: GJA1, P17302 (peptide)
chain: SRPRPDDLEI
B33: C3AR1, Q16581 (peptide)
chain: VISERNSTTV
B34: TTC24, A2A3L6 (peptide)
chain: PMESGICTIV
B35: PPFIA1, Q13136 (peptide)
chain: DSATVRTYSC
B36: PLEKHH2, Q8IVE3 (peptide)
chain: SRPTKGPTLL
B37: ADGRA1, Q86SQ6 (peptide)
chain: TGPWKNETTV
B38: APBA1, Q02410 (peptide)
chain: LTAQEQPVYI
B39: MAP7D2, Q96T17 (peptide)
chain: GQETPLNTFC
B40: ADGRE5, P48960 (peptide)
chain: RALRASESGI
B41: LSM14A, Q8ND56;Q8ND56-2 (peptide)
chain: EYRKDNKVAA
B42: DENND5A, Q6IQ26 (peptide)
chain: ETSLVKGIDI
B43: SLC6A3, Q01959 (peptide)
chain: QFTLRHWLKV
B44: PPP1R3G, B7ZBB8 (peptide)
chain: LRYARPADAL
B45: GRIP1, Q9Y3R0 (peptide)
chain: LETREPTNTL
B46: SLC1A4, P43007 (peptide)
chain: PELESKESVL
B47: UQCRC2, P22695 (peptide)
chain: LGHTPFVDEL
B48: AMOTL1, Q8IY63 (peptide)
chain: PDGEMMEVLI
B49: GLA, P06280 (peptide)
chain: TMQMSLKDLL
B50: MARCHF9, Q86YJ5 (peptide)
chain: REVVMRVTTV
B51: GNG4, P50150 (peptide)
chain: REKKFFCTIL
B52: SCN4A, P35499 (peptide)
chain: VRPGVKESLV
B53: SSTR5, P35346 (peptide)
chain: ANGLMQTSKL
B54: CLDN19, Q8N6F1 (peptide)
chain: PASAKGPLGV
B55: CACNG4, Q9UBN1 (peptide)
chain: SMLNRRTTPV
B56: JAM3, Q9BX67 (peptide)
chain: DFRHKSSFVI
B57: NDE1, Q9NXR1;Q9NXR1-2 (peptide)
chain: KSTTRSSSSC
B58: NECTIN3, Q9NQS3 (peptide)
chain: SVISRREWYV
B59: GJD2, Q9UKL4 (peptide)
chain: RTQSSDSAYV

How the values were obtained:
DLG2_3, Q15700 = test: holdup assay; design: key: below the threshold = too weak to quantify, mostly under pKd 3.1 to 4
FRMPD4, Q14CM0 = test: holdup assay; design: key: below the threshold = too weak to quantify, mostly under pKd 3.1 to 4
FRMPD4, Q14CM0, sequence (Q14CM0 67-160): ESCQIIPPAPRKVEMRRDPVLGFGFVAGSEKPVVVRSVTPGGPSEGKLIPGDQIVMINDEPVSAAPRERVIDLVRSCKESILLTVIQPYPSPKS

[1] = plain residues with an end cap or a label only (N-terminal biotin on a linker: ado-ado)
[2] = modified: phospho on T at position -2 from the C-terminal residue
[3] = modified: phospho on T at position -1 from the C-terminal residue

Row | Binder | pKd (DLG2_3, Q15700; [1]) | pKd (FRMPD4, Q14CM0; [1]) | further results
1 | B1 | below the threshold | 3.82 | 
2 | B2 | below the threshold | below the threshold | 
3 | B3 | 3.97 | below the threshold | 
4 | B4 | 3.55 | below the threshold | 
5 | B5 | below the threshold | 4.01 | 
6 | B6 | below the threshold | below the threshold | 
7 | B7 | 4.93 | below the threshold | 
8 | B8 | 3.76 | 3.54 | 
9 | B9 | 3.83 | 4.07 | 
10 | B10 | 3.77 | below the threshold | 
11 | B11 | 4.58 | below the threshold | 
12 | B12 | 3.67 | below the threshold | 
13 | B13 | 4.06 | below the threshold | 
14 | B14 | 3.75 | below the threshold | 
15 | B15 | below the threshold | 4.7 | 
16 | B16 | below the threshold | below the threshold | 
17 | B17 | below the threshold | 5.25 | 
18 | B18 | below the threshold | 4.21 | 
19 | B19 | below the threshold | 3.93 | 
20 | B20 | below the threshold | below the threshold | 

Row | Binder | pKd (DLG2_3, Q15700; [1]) | pKd (FRMPD4, Q14CM0; [1]) | further results
21 | B21 | below the threshold | below the threshold | 
22 | B22 | 3.72 | below the threshold | 
23 | B23 | 3.71 | 4.33 | 
24 | B24 | below the threshold | 4.43 | 
25 | B25 |  |  | pKd (DLG2_3, Q15700; [2]): below the threshold; pKd (FRMPD4, Q14CM0; [2]): 3.48
26 | B26 | below the threshold | 3.63 | 
27 | B27 | below the threshold | 3.53 | 
28 | B28 | below the threshold | below the threshold | 
29 | B29 | 4 | below the threshold | 
30 | B30 |  |  | pKd (DLG2_3, Q15700; [3]): 3.74; pKd (FRMPD4, Q14CM0; [3]): 3.62
31 | B31 | below the threshold | 3.7 | 
32 | B32 | below the threshold | below the threshold | 
33 | B33 | 3.8 | below the threshold | 
34 | B34 | below the threshold | below the threshold | 
35 | B35 | 3.73 | 3.8 | 
36 | B36 | below the threshold | 3.88 | 
37 | B37 | 4.64 | below the threshold | 
38 | B38 | 3.68 | below the threshold | 
39 | B39 | below the threshold | below the threshold | 
40 | B40 | below the threshold | below the threshold | 

Row | Binder | pKd (DLG2_3, Q15700; [1]) | pKd (FRMPD4, Q14CM0; [1]) | further results
41 | B41 |  | below the threshold | 
42 | B42 | below the threshold | below the threshold | 
43 | B43 | below the threshold | below the threshold | 
44 | B44 | below the threshold | 3.66 | 
45 | B45 | below the threshold | below the threshold | 
46 | B46 | below the threshold | 3.85 | 
47 | B47 | below the threshold | 3.77 | 
48 | B48 | 3.58 | below the threshold | 
49 | B49 | 3.52 | 3.67 | 
50 | B50 | 4.92 | below the threshold | 
51 | B51 | 4.41 | 4.23 | 
52 | B52 | 4.27 | below the threshold | 
53 | B53 | 3.48 | 3.69 | 
54 | B54 | below the threshold | below the threshold | 
55 | B55 | 4.89 | below the threshold | 
56 | B56 | 3.52 | below the threshold | 
57 | B57 |  | below the threshold | 
58 | B58 | 4.05 | 3.97 | 
59 | B59 | below the threshold | 3.86 | 
